Test results as given in patent publication US20240352136A1 (Hoffmann-La Roche, published 2024).

Target: T1, human CD25 (alpha subunit of the interleukin-2 receptor, IL2RA) (human, UniProt P01589 22-272)
T1 sequence: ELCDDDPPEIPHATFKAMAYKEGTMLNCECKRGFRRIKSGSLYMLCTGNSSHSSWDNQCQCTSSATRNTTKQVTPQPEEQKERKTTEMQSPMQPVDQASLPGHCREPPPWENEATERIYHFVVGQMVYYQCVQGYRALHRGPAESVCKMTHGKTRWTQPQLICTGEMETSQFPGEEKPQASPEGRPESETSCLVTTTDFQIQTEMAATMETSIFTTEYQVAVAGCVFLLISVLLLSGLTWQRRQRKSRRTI
Experiment: cell-based or functional assay

B1: CD25 Mab (RG6292) (antibody, human IgG1, kappa, V domains shown)
VH: QVQLVQSGAEVKKPGSSVKVSCKASGGTFSSLAISWVRQAPGQGLEWMGGIIPIFGTANYAQKFQGRVTITADESTSTAYMELSSLRSEDTAVYYCARGGSVSGTLVDFDIWGQGTMVTVSS
VL: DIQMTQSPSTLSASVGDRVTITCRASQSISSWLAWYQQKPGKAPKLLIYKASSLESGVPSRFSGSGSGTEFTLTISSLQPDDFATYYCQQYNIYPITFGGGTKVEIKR
modifications: afucosylated Fc glycan (produced using the GlymaxX technology)
- ADCC EC50, AML-22 target cells with activated NK cells, flow cytometry readout, 17 h: ~0.03 µg/mL
- ADCC EC50, EOL-1 target cells with activated NK cells, flow cytometry readout, 17 h: ~0.03 µg/mL
- ADCC EC50, EOL-1 target cells, CytoTox-Glo luminescence readout: 0.035 µg/mL
- ADCC EC50, EOL-1 target cells, flow cytometry readout: 0.03 µg/mL
